From patent publication US20140030266A1

Assays:
[1] = target: MIF receptor CD74 ectodomain (CD74 73-232, sCD74) (UniProt P04233); experiment: competition binding assay on sCD74 with biotinylated human MIF as the competed ligand [panel A]
[2] = target: MIF receptor CD74 ectodomain (CD74 73-232, sCD74) (UniProt P04233); experiment: SPR (BIAcore 2000), sCD74 immobilized
[3] = target: MIF receptor CD74 ectodomain (CD74 73-232, sCD74) (UniProt P04233); experiment: competition binding assay on sCD74, biotinylated human MIF as competitor
[4] = target: MIF receptor CD74 ectodomain (CD74 73-232, sCD74) (UniProt P04233); experiment: SPR (BIAcore 2000), sCD74 immobilized, ligand in solution

IC50 (read off the curve) [1]: 0.3 µM | affinity relative to MIF (% lower than MIF) [2]: 60 | fold higher binding rate than MIF [2]: 3 fold | koff [2]: 0.00066 s⁻¹ | kon [2]: 120000 M⁻¹ s⁻¹ | maximal effect on MIF binding compared with MIF [3]: 50% | Kd [4]: 0.00542 µM
Substance: human D-dopachrome tautomerase (D-DT), recombinant native-sequence protein (from UniProt P30046 2-118) (ligand)
